Test results taken from publication PMC4939597, “Mechanism for insulin-like peptide 5 distinguishing the homologous relaxin family peptide receptor 3 and 4” (Scientific Reports, 2016).
No end group written: not given here.

How the values were obtained:
human RXFP3 [1] = target: T1, human RXFP3 (Homo sapiens, UniProt Q9NSD7); assay: Receptor activation assay, CRE-controlled NanoLuc reporter; assay type: cell-based; conditions: for activation potency towards RXFP3, result in words: CRE-controlled NanoLuc reporter, HEK293T cells, human RXFP3
T1 construct: expressed in transfected cells; host or cells: HEK293T
T1 sequence (Q9NSD7 1-469): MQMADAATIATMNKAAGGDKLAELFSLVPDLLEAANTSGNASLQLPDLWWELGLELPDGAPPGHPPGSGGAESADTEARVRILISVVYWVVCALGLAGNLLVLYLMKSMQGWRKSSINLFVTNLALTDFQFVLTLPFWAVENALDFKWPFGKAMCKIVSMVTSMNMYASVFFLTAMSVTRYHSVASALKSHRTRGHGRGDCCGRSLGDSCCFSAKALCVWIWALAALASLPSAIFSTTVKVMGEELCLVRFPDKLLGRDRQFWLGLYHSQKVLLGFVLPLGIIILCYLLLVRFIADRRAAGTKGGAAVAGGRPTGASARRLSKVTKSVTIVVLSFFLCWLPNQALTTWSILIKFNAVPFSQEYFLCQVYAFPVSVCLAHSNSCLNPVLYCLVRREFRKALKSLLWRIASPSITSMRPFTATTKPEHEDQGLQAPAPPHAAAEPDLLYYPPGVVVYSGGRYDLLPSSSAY
Method: (§1) Figure 4 Receptor activation activities of the mature INSL5 and R3/I5 mutants towards RXFP3 and RXFP4. HEK293T cells transiently cotransfected by human RXFP3 or human RXFP4 and a CRE-controlled NanoLuc reporter were used for the activation assays. The measured data were expressed as mean ± SE (n = 3) and fitted to sigmoidal or linear curves using the software SigmaPlot 10.0.
(§2) The receptor activation assays of the mature INSL5 and R3/I5 mutants were carried out using a cAMP-response element (CRE)-controlled NanoLuc reporter according to our previous procedure. Briefly, HEK293T cells were transiently cotransfected with the expression construct of human RXFP3 or human RXFP4 and the CRE-controlled NanoLuc reporter vector pNL1.2/CRE. Next day, the transfected cells were trypsinised, seeded into a 96-well plate, and continuously cultured for 24–36 h to ~90% confluence. To start activation assay, the medium was removed and the activation solution (serum-free DMEM medium plus 1% bovine serum albumin) containing 1.0 μM of forskolin and varied concentrations of peptide was added (100 μl/well). After being continuously cultured at 37 °C for 4 h, the activation solution was removed and the cells were lysed by lysis solution (100 μl/well, from Promega). The cell lysate was then transferred to a white opaque 96-well plate (50 μl/well), mixed with the freshly diluted substrate (50 μl/well), and bioluminescence was immediately measured on a SpectraMax M5 plate reader (Molecular Devices) using the luminescence mode. The measured bioluminescence data were expressed as mean ± SE (n = 3) and fitted to sigmoidal or linear curves using the SigmaPlot10.0 software.

human RXFP4 [2] = target: T2, human RXFP4 (Homo sapiens, UniProt Q8TDU9); assay: as above; assay type: cell-based
T2 construct: expressed in transfected cells; host or cells: HEK293T
Method: as §1, §2

human RXFP3 [3] = target: T1, human RXFP3; assay: Receptor binding assay, competition with NanoLuc-conjugated R3/I5 tracer
Method: (§3) Figure 3 Receptor binding activities of the mature INSL5 and R3/I5 mutants towards RXFP3 and RXFP4. A NanoLuc-conjugated R3/I5 peptide was used as tracer and HEK293T cells transiently overexpressing human RXFP3 or human RXFP4 were used as receptor source. The tracer concentration used in these assays was 0.5 nM. The nonspecific binding was obtained by competition with 1.0 μM of relaxin-3. The measured data were expressed as mean ± SE (n = 3) and fitted to sigmoidal curves using the software SigmaPlot 10.0.
(§4) The receptor binding assays of the mature INSL5 and R3/I5 mutants were carried out using a NanoLuc-conjugated R3/I5 peptide as tracer and the human embryonic kidney (HEK) 293T cells transiently overexpressing human RXFP3 or human RXFP4 as receptor source. Nonspecific binding was obtained by competition with 1.0 μM of human relaxin-3. Briefly, HEK293T cells were transiently transfected with the expression construct of human RXFP3 or human RXFP4. Next day, the transfected cells were trypsinised, seeded into a 96-well plate, and continuously cultured for 24–36 h to confluence. To start binding assay, the medium was removed and the binding solution (serum-free DMEM medium plus 1% bovine serum albumin) containing 0.5 nM of the NanoLuc-conjugated R3/I5 tracer and varied concentrations of competitor was added (100 μl/well). After incubation at 21 °C for 2 h, the binding solution was removed and the cells were washed twice by ice-cold phosphate-buffered saline (200 μl/well for each wash). Thereafter, the cells were lysed by lysis solution (100 μl/well, from Promega, Madison, WI, USA) and the cell lysate was transferred to a white opaque 96-well plate (50 μl/well). After mixing with the freshly diluted substrate (50 μl/well), bioluminescence was immediately measured on a SpectraMax M5 plate reader (Molecular Devices, Sunnyvale, CA, USA) using the luminescence mode. The measured bioluminescence data were expressed as mean ± SE (n = 3) and fitted to sigmoidal curves using the SigmaPlot10.0 software.

human RXFP4 [4] = target: T2, human RXFP4; assay: as above; conditions: for fold lower binding potency towards RXFP4 compared with wild-type INSL5: lower than wild-type INSL5
Method: as §3, §4

[5] = HEK293T cells cotransfected with human RXFP4 and CRE-controlled NanoLuc reporter, 1.0 μM forskolin, 37 °C, 4 h, mean ± SE, n = 3, SEM
[6] = HEK293T cells transiently overexpressing human RXFP3, 0.5 nM NanoLuc-conjugated R3/I5 tracer, 21 °C, 2 h, mean ± SE, n = 3, SEM
[7] = HEK293T cells transiently overexpressing human RXFP4, 0.5 nM NanoLuc-conjugated R3/I5 tracer, 21 °C, 2 h, mean ± SE, n = 3, SEM
[8] = HEK293T cells cotransfected with human RXFP3 and CRE-controlled NanoLuc reporter, 1.0 μM forskolin, 37 °C, 4 h, mean ± SE, n = 3, N.D., not detectable, SEM

T2 sequence (Q8TDU9 whole entry): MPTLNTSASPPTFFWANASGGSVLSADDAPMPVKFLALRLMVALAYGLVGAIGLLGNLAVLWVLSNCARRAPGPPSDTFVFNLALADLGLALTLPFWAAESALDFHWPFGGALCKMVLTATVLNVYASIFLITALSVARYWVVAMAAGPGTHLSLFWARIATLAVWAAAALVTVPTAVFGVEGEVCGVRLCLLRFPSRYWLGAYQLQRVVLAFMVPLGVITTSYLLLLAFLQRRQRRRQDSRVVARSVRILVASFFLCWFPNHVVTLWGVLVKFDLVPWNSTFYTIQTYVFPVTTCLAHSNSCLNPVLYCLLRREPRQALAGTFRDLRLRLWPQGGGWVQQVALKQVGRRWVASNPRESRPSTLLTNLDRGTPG

Row | Compound | pEC50 RXFP4 (human RXFP4 [2]; [5]) | pIC50 RXFP3 (human RXFP3 [3]; [6]) | pIC50 RXFP4 (human RXFP4 [4]; [7]) | pEC50 RXFP3 (human RXFP3 [1]; [8]) | further results
1 | [L(B9)R,Y(B17)F]INSL5: recombinant mature two-chain INSL5 mutant (Insulin-like peptide INSL5 B … KESVRLCGREYIRTVIFICASSRW; Insulin-like peptide INSL5 A … QDLQTLCCTDGCSMTDLSALC; ends and bridges not checked; cysteine pairing not given here; UniProt Q9Y5Q6 23-46; Q9Y5Q6 115-135, looked up, variant L9R Y17F) | 9.20 ± 0.03 | 8.17 ± 0.04 | 7.33 ± 0.03 |  | pEC50 RXFP3 (human RXFP3 [1]; HEK293T cells cotransfected with human RXFP3 and CRE-controlled NanoLuc reporter, 1.0 μM forskolin, 37 °C, 4 h, mean ± SE, n = 3, N.D., not detectable): <6; fold lower activation potency towards RXFP3 than its parent mutants (human RXFP3 [1]; lower than parent mutants [L(B9)R]INSL5 and [Y(B17)F]INSL5): ~ 10 fold; fold lower binding potency towards RXFP4 compared with wild-type INSL5 (human RXFP4 [4]): ~ 3 fold
2 | CC[C@H](C)[C@@H]1NC(=O)[C@H](Cc2ccccc2)NC(=O)[C@H](CCC(=O)O)NC(=O)[C@H](CCCNC(=N)N)NC(=O)CNC(=O)[C@@H](NC(=O)[C@H](CC(C)C)NC(=O)[C@H](CCCNC(=N)N)NC(=O)[C@@H](NC(=O)CNC(=O)[C@H](Cc2ccc(O)cc2)NC(=O)[C@@H]2CCCN2C(=O)[C@H](C)NC(=O)[C@H](C)NC(=O)[C@@H](N)CCCNC(=N)N)C(C)C)CSSC[C@@H]2NC(=O)[C@@H](NC(=O)[C@H](CO)NC(=O)[C@H](CO)NC(=O)[C@H](CO)NC(=O)[C@H](CC(C)C)NC(=O)CNC(=O)[C@H](C)NC(=O)[C@H](CC(C)C)NC(=O)[C@@H](NC(=O)[C@@H](N)CC(=O)O)C(C)C)CSSC[C@H](NC(=O)CNC(=O)[C@H](Cc3c[nH]c4ccccc34)NC(=O)[C@H](CCCCN)NC2=O)C(=O)N[C@@H](CO)C(=O)N[C@@H](CCCCN)C(=O)N[C@@H](CO)C(=O)N[C@@H](CCC(=O)O)C(=O)N[C@@H]([C@@H](C)CC)C(=O)N[C@@H](CO)C(=O)N[C@@H](CO)C(=O)N[C@@H](CC(C)C)C(=O)N[C@H](C(=O)O)CSSC[C@@H](C(=O)NCC(=O)NCC(=O)N[C@@H](CO)C(=O)N[C@@H](CCCNC(=N)N)C(=O)N[C@@H](Cc2c[nH]c3ccccc23)C(=O)O)NC(=O)[C@H]([C@@H](C)O)NC(=O)[C@H](Cc2ccccc2)NC(=O)[C@H]([C@@H](C)CC)NC(=O)[C@H](C(C)C)NC(=O)[C@H](C)NC(=O)[C@H](CCCNC(=N)N)NC1=O [relaxin-3, reference compound] |  |  |  |  | EC50 (human RXFP3 [1]; HEK293T cells cotransfected with human RXFP3 and CRE-controlled NanoLuc reporter, 1.0 μM forskolin, 37 °C, 4 h, mean ± SE, n = 3, N.D., not detectable, SEM, read-out: pEC50 RXFP3 (converted)): 0.0245 nM; EC50 (human RXFP4 [2]; HEK293T cells cotransfected with human RXFP4 and CRE-controlled NanoLuc reporter, 1.0 μM forskolin, 37 °C, 4 h, mean ± SE, n = 3, SEM, read-out: pEC50 RXFP4 (converted)): 0.105 nM; IC50 (human RXFP3 [3]; HEK293T cells transiently overexpressing human RXFP3, 0.5 nM NanoLuc-conjugated R3/I5 tracer, 21 °C, 2 h, mean ± SE, n = 3, SEM, read-out: pIC50 RXFP3 (converted)): 2.04 nM; IC50 (human RXFP4 [4]; HEK293T cells transiently overexpressing human RXFP4, 0.5 nM NanoLuc-conjugated R3/I5 tracer, 21 °C, 2 h, mean ± SE, n = 3, SEM, read-out: pIC50 RXFP4 (converted)): 12.3 nM
3 | [Y(B17)F]INSL5: recombinant mature two-chain INSL5 mutant (Insulin-like peptide INSL5 B … KESVRLCGLEYIRTVIFICASSRW; Insulin-like peptide INSL5 A … QDLQTLCCTDGCSMTDLSALC; ends and bridges not checked; cysteine pairing not given here; UniProt Q9Y5Q6 23-46; Q9Y5Q6 115-135, looked up, variant Y17F) | 8.40 ± 0.09 | 6.77 ± 0.05 | 7.23 ± 0.03 | 6.83 ± 0.08 | fold lower activation potency towards RXFP4 compared with INSL5 (human RXFP4 [2]; lower than wild-type INSL5): ~ 9 fold; fold lower binding potency towards RXFP3 compared with wild-type INSL5 (human RXFP3 [3]; lower than wild-type INSL5): ~ 3 fold; fold lower binding potency towards RXFP4 compared with wild-type INSL5 (human RXFP4 [4]): ~ 3 fold
4 | [T(B14)A]INSL5: recombinant mature two-chain INSL5 mutant (Insulin-like peptide INSL5 B … KESVRLCGLEYIRAVIYICASSRW; Insulin-like peptide INSL5 A … QDLQTLCCTDGCSMTDLSALC; ends and bridges not checked; cysteine pairing not given here; UniProt Q9Y5Q6 23-46; Q9Y5Q6 115-135, looked up, variant T14A) | 9.05 ± 0.04 | 7.06 ± 0.03 | 7.57 ± 0.05 |  | activation potency towards RXFP3, result in words (human RXFP3 [1]): no detectable activation potency
5 | [L(B9)R]INSL5: recombinant mature two-chain INSL5 mutant (Insulin-like peptide INSL5 B … KESVRLCGREYIRTVIYICASSRW; Insulin-like peptide INSL5 A … QDLQTLCCTDGCSMTDLSALC; ends and bridges not checked; cysteine pairing not given here; UniProt Q9Y5Q6 23-46; Q9Y5Q6 115-135, looked up, variant L9R) | 9.87 ± 0.04 | 7.87 ± 0.04 | 7.85 ± 0.03 | 7.21 ± 0.04 | fold higher binding potency towards RXFP3 than wild-type INSL5 (human RXFP3 [3]; higher than wild-type INSL5): ~ 4 fold
6 | [I(B18)T]INSL5: recombinant mature two-chain INSL5 mutant (Insulin-like peptide INSL5 B … KESVRLCGLEYIRTVIYTCASSRW; Insulin-like peptide INSL5 A … QDLQTLCCTDGCSMTDLSALC; ends and bridges not checked; cysteine pairing not given here; UniProt Q9Y5Q6 23-46; Q9Y5Q6 115-135, looked up, variant I18T) | 9.31 ± 0.08 | 7.07 ± 0.04 | 7.43 ± 0.05 |  | activation potency towards RXFP3, result in words (human RXFP3 [1]): no detectable activation potency
7 | R3/I5: chimeric peptide containing the B-chain of relaxin-3 and the A-chain of INSL5 [reference compound] | 10.32 ± 0.03 | 8.85 ± 0.02 | 8.24 ± 0.03 | 10.44 ± 0.03 | 
